Patent US20200087373A1 (UNIVERSITY OF COPENHAGEN, published 2020)
Ends that are not written are not given here. * marks the point of attachment. C18 diacid = O=C(O)CCCCCCCCCCCCCCCCC(=O)*; C16 diacid = O=C(O)CCCCCCCCCCCCCCC(=O)*; C14 diacid = O=C(O)CCCCCCCCCCCCC(=O)*; Stearoyl = CCCCCCCCCCCCCCCCCC(=O)*; Palmitoyl = CCCCCCCCCCCCCCCC(=O)*; Myristoyl = CCCCCCCCCCCCCC(=O)*; Lauroyl = CCCCCCCCCCCC(=O)*

T1: human GIP receptor (human, UniProt P48546 22-466)
T1 construct: whole, on cells; also called hGIPR
T1 sequence (looked up): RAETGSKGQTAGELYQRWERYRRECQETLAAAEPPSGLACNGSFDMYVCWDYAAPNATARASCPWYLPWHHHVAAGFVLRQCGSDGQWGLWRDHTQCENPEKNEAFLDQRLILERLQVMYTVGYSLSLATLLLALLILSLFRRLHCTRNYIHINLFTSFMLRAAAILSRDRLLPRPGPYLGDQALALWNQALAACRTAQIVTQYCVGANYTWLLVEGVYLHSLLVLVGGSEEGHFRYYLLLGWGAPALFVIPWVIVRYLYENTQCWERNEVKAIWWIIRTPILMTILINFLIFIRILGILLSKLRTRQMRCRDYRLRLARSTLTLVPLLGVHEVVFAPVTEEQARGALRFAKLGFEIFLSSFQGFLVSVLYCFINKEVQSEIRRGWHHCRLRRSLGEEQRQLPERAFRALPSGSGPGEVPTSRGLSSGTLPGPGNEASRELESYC


Tests used:
human GIP receptor [1] = target: T1, human GIP receptor; test: 125I-hGIP competition binding, COS-7 cells expressing hGIPR;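 note: nonspecific binding taken as radioligand bound by untransfected cells, binding buffer with or without 2% HSA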
Procedure: (§1) After incubation, the cells were washed twice in ice-cold binding buffer (+/−2% HSA) and lysed using 200 mM NaOH with 1% SDS for 30 min. Nonspecific binding was determined as the binding of radioactive ligand to untransfected cells.

human GIP receptor [2] = target: T1, human GIP receptor; test: IC50 with 2% HSA over IC50 with 0.1% casein, 125I-hGIP competition, COS-7/hGIPR
Procedure: as §1

human GIP receptor [3] = target: T1, human GIP receptor; test: 125I-hGIP competition binding, COS-7/hGIPR, 2% HSA;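 note: nonspecific binding defined as radioligand binding to untransfected cells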
Procedure: as §1

human GIP receptor [4] = target: T1, human GIP receptor; test: 125I-hGIP competition binding, COS-7/hGIPR, 0.1% casein;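 note: nonspecific binding defined as radioligand binding measured on untransfected cells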
Procedure: as §1

Row | Binder | IC50 (human GIP receptor [1]) [nM] | log IC50 (human GIP receptor [1]) [log M] | Fold change HSA (2%)/Casein (0.1%) (human GIP receptor [2]) [fold] | IC50 (human GIP receptor [3]) [nM] | logIC50 (human GIP receptor [3]) [log M] | IC50 (human GIP receptor [4]) [nM] | logIC50 (human GIP receptor [4]) [log M]
1 | TFISDYSIAMDK(C14 diacid)IHQQDFVNWLLAQK-NH2 (N-terminus assumed; SMILES CC[C@H](C)[C@H](NC(=O)[C@H](CO)NC(=O)[C@H](Cc1ccc(O)cc1)NC(=O)[C@H](CC(=O)O)NC(=O)[C@H](CO)NC(=O)[C@@H](NC(=O)[C@H](Cc1ccccc1)NC(=O)[C@@H](N)[C@@H](C)O)[C@@H](C)CC)C(=O)N[C@@H](C)C(=O)N[C@@H](CCSC)C(=O)N[C@@H](CC(=O)O)C(=O)N[C@@H](CCCCNC(=O)CCCCCCCCCCCCC(=O)O)C(=O)N[C@H](C(=O)N[C@@H](Cc1c[nH]cn1)C(=O)N[C@@H](CCC(N)=O)C(=O)N[C@@H](CCC(N)=O)C(=O)N[C@@H](CC(=O)O)C(=O)N[C@@H](Cc1ccccc1)C(=O)N[C@H](C(=O)N[C@@H](CC(N)=O)C(=O)N[C@@H](Cc1c[nH]c2ccccc12)C(=O)N[C@@H](CC(C)C)C(=O)N[C@@H](CC(C)C)C(=O)N[C@@H](C)C(=O)N[C@@H](CCC(N)=O)C(=O)N[C@@H](CCCCN)C(N)=O)C(C)C)[C@@H](C)CC) [AT139 [hGIP(5-30)NH2-C14diacid/16]] | 153 | -6.8 | 2.6 | 401 | -6.4 | 153 | -6.8
2 | {C18 diacid}-TFISDYSIAMDKIHQQDFVNWLLAQK-NH2 (SMILES CC[C@H](C)[C@H](NC(=O)[C@H](CO)NC(=O)[C@H](Cc1ccc(O)cc1)NC(=O)[C@H](CC(=O)O)NC(=O)[C@H](CO)NC(=O)[C@@H](NC(=O)[C@H](Cc1ccccc1)NC(=O)[C@@H](NC(=O)CCCCCCCCCCCCCCCCC(=O)O)[C@@H](C)O)[C@@H](C)CC)C(=O)N[C@@H](C)C(=O)N[C@@H](CCSC)C(=O)N[C@@H](CC(=O)O)C(=O)N[C@@H](CCCCN)C(=O)N[C@H](C(=O)N[C@@H](Cc1c[nH]cn1)C(=O)N[C@@H](CCC(N)=O)C(=O)N[C@@H](CCC(N)=O)C(=O)N[C@@H](CC(=O)O)C(=O)N[C@@H](Cc1ccccc1)C(=O)N[C@H](C(=O)N[C@@H](CC(N)=O)C(=O)N[C@@H](Cc1c[nH]c2ccccc12)C(=O)N[C@@H](CC(C)C)C(=O)N[C@@H](CC(C)C)C(=O)N[C@@H](C)C(=O)N[C@@H](CCC(N)=O)C(=O)N[C@@H](CCCCN)C(N)=O)C(C)C)[C@@H](C)CC) [AT138 [hGIP(5-30)NH2-C18diacid/5]] | 2640 | -5.6 | 3.8 | 10100 | -5 | 2640 | -5.6
3 | EGTFISDYSIAMDK(Myristoyl)IHQQDFVNWLLAQK-NH2 [AT111 [hGIP(3-30)NH2-C14/16]] | 261 | -6.6 | 5.1 | 2090 | -5.7 | 407 | -6.4
4 | TFISDYSIAMDK(C18 diacid)IHQQDFVNWLLAQK-NH2 (N-terminus assumed; SMILES CC[C@H](C)[C@H](NC(=O)[C@H](CO)NC(=O)[C@H](Cc1ccc(O)cc1)NC(=O)[C@H](CC(=O)O)NC(=O)[C@H](CO)NC(=O)[C@@H](NC(=O)[C@H](Cc1ccccc1)NC(=O)[C@@H](N)[C@@H](C)O)[C@@H](C)CC)C(=O)N[C@@H](C)C(=O)N[C@@H](CCSC)C(=O)N[C@@H](CC(=O)O)C(=O)N[C@@H](CCCCNC(=O)CCCCCCCCCCCCCCCCC(=O)O)C(=O)N[C@H](C(=O)N[C@@H](Cc1c[nH]cn1)C(=O)N[C@@H](CCC(N)=O)C(=O)N[C@@H](CCC(N)=O)C(=O)N[C@@H](CC(=O)O)C(=O)N[C@@H](Cc1ccccc1)C(=O)N[C@H](C(=O)N[C@@H](CC(N)=O)C(=O)N[C@@H](Cc1c[nH]c2ccccc12)C(=O)N[C@@H](CC(C)C)C(=O)N[C@@H](CC(C)C)C(=O)N[C@@H](C)C(=O)N[C@@H](CCC(N)=O)C(=O)N[C@@H](CCCCN)C(N)=O)C(C)C)[C@@H](C)CC) [AT141 [hGIP(5-30)NH2-C18diacid/16]] | 1900 | -5.7 | 6.5 | 12400 | -4.9 | 1900 | -5.7
5 | TFISDYSIAMDK(C16 diacid)IHQQDFVNWLLAQK-NH2 (N-terminus assumed; SMILES CC[C@H](C)[C@H](NC(=O)[C@H](CO)NC(=O)[C@H](Cc1ccc(O)cc1)NC(=O)[C@H](CC(=O)O)NC(=O)[C@H](CO)NC(=O)[C@@H](NC(=O)[C@H](Cc1ccccc1)NC(=O)[C@@H](N)[C@@H](C)O)[C@@H](C)CC)C(=O)N[C@@H](C)C(=O)N[C@@H](CCSC)C(=O)N[C@@H](CC(=O)O)C(=O)N[C@@H](CCCCNC(=O)CCCCCCCCCCCCCCC(=O)O)C(=O)N[C@H](C(=O)N[C@@H](Cc1c[nH]cn1)C(=O)N[C@@H](CCC(N)=O)C(=O)N[C@@H](CCC(N)=O)C(=O)N[C@@H](CC(=O)O)C(=O)N[C@@H](Cc1ccccc1)C(=O)N[C@H](C(=O)N[C@@H](CC(N)=O)C(=O)N[C@@H](Cc1c[nH]c2ccccc12)C(=O)N[C@@H](CC(C)C)C(=O)N[C@@H](CC(C)C)C(=O)N[C@@H](C)C(=O)N[C@@H](CCC(N)=O)C(=O)N[C@@H](CCCCN)C(N)=O)C(C)C)[C@@H](C)CC) [AT140 [hGIP(5-30)NH2-C16diacid/16]] | 2160 | -5.7 | 1.5 | 3280 | -5.5 | 2160 | -5.7
6 | EGTFISDYSIAMDKIK(Lauroyl)QQDFVNWLLAQK-NH2 (N-terminus assumed; SMILES CCCCCCCCCCCC(=O)NCCCC[C@H](NC(=O)[C@@H](NC(=O)[C@H](CCCCN)NC(=O)[C@H](CC(=O)O)NC(=O)[C@H](CCSC)NC(=O)[C@H](C)NC(=O)[C@@H](NC(=O)[C@H](CO)NC(=O)[C@H](Cc1ccc(O)cc1)NC(=O)[C@H](CC(=O)O)NC(=O)[C@H](CO)NC(=O)[C@@H](NC(=O)[C@H](Cc1ccccc1)NC(=O)[C@@H](NC(=O)CNC(=O)[C@@H](N)CCC(=O)O)[C@@H](C)O)[C@@H](C)CC)[C@@H](C)CC)[C@@H](C)CC)C(=O)N[C@@H](CCC(N)=O)C(=O)N[C@@H](CCC(N)=O)C(=O)N[C@@H](CC(=O)O)C(=O)N[C@@H](Cc1ccccc1)C(=O)N[C@H](C(=O)N[C@@H](CC(N)=O)C(=O)N[C@@H](Cc1c[nH]c2ccccc12)C(=O)N[C@@H](CC(C)C)C(=O)N[C@@H](CC(C)C)C(=O)N[C@@H](C)C(=O)N[C@@H](CCC(N)=O)C(=O)N[C@@H](CCCCN)C(N)=O)C(C)C) [AT116 [hGIP(3-30)NH2-C12/18]] | 71.2 | -7.1 | 5.2 | 321 | -6.5 | 62 | -7.2
7 | EGTFISDYSIAMDKIK(Palmitoyl)QQDFVNWLLAQK-NH2 (N-terminus assumed; SMILES CCCCCCCCCCCCCCCC(=O)NCCCC[C@H](NC(=O)[C@@H](NC(=O)[C@H](CCCCN)NC(=O)[C@H](CC(=O)O)NC(=O)[C@H](CCSC)NC(=O)[C@H](C)NC(=O)[C@@H](NC(=O)[C@H](CO)NC(=O)[C@H](Cc1ccc(O)cc1)NC(=O)[C@H](CC(=O)O)NC(=O)[C@H](CO)NC(=O)[C@@H](NC(=O)[C@H](Cc1ccccc1)NC(=O)[C@@H](NC(=O)CNC(=O)[C@@H](N)CCC(=O)O)[C@@H](C)O)[C@@H](C)CC)[C@@H](C)CC)[C@@H](C)CC)C(=O)N[C@@H](CCC(N)=O)C(=O)N[C@@H](CCC(N)=O)C(=O)N[C@@H](CC(=O)O)C(=O)N[C@@H](Cc1ccccc1)C(=O)N[C@H](C(=O)N[C@@H](CC(N)=O)C(=O)N[C@@H](Cc1c[nH]c2ccccc12)C(=O)N[C@@H](CC(C)C)C(=O)N[C@@H](CC(C)C)C(=O)N[C@@H](C)C(=O)N[C@@H](CCC(N)=O)C(=O)N[C@@H](CCCCN)C(N)=O)C(C)C) [AT117 [hGIP(3-30)NH2[H18K]-C16/18]] | 292 | -6.5 | 15.7 | 1730 | -5.8 | 110 | -7
8 | EGTFISDYSIAMDK(Stearoyl)IHQQDFVNWLLAQK-NH2 [AT114 [hGIP(3-30)NH2-C18/16]] | 622 | -6.2 | 11.2 | 5460 | -5.3 | 489 | -6.3
